Data as given in PMC7266993 (2020).

B1: FLAG epitope-tagged STAG1, wild type (transient, HEK293) [human] / RAD21 (endogenous, HEK293) [human (endogenous in HEK293)] (parent complex)
chain 1: MITSELPVLQDSTNETTAHSDAGSELEETEVKGKRKRGRPGRPPSTNKKPRKSPGEKSRIEAGIRGAGRGRANGHPQQNGEGEPVTLFEVVKLGKSAMQSVVDDWIESYKQDRDIALLDLINFFIQCSGCRGTVRIEMFRNMQNAEIIRKMTEEFDEDSGDYPLTMPGPQWKKFRSNFCEFIGVLIRQCQYSIIYDEYMMDTVISLLTGLSDSQVRAFRHTSTLAAMKLMTALVNVALNLSIHQDNTQRQYEAERNKMIGKRANERLELLLQKRKELQENQDEIENMMNSIFKGIFVHRYRDAIAEIRAICIEEIGVWMKMYSDAFLNDSYLKYVGWTLHDRQGEVRLKCLKALQSLYTNRELFPKLELFTNRFKDRIVSMTLDKEYDVAVEAIRLVTLILHGSEEALSNEDCENVYHLVYSAHRPVAVAAGEFLHKKLFSRHDPQAEEALAKRRGRNSPNGNLIRMLVLFFLESELHEHAAYLVDSLWESSQELLKDWECMTELLLEEPVQGEEAMSDRQESALIELMVCTIRQAAEAHPPVGRGTGKRVLTAKERKTQIDDRNKLTEHFIITLPMLLSKYSADAEKVANLLQIPQYFDLEIYSTGRMEKHLDALLKQIKFVVEKHVESDVLEACSKTYSILCSEEYTIQNRVDIARSQLIDEFVDRFNHSVEDLLQEGEEADDDDIYNVLSTLKRLTSFHNAHDLTKWDLFGNCYRLLKTGIEHGAMPEQIVVQALQCSHYSILWQLVKITDGSPSKEDLLVLRKTVKSFLAVCQQCLSNVNTPVKEQAFMLLCDLLMIFSHQLMTGGREGLQPLVFNPDTGLQSELLSFVMDHVFIDQDEENQSMEGDEEDEANKIEALHKRRNLLAAFSKLIIYDIVDMHAAADIFKHYMKYYNDYGDIIKETLSKTRQIDKIQCAKTLILSLQQLFNELVQEQGPNLDRTSAHVSGIKELARRFALTFGLDQIKTREAVATLHKDGIEFAFKYQNQKGQEYPPPNLAFLEVLSEFSSKLLRQDKKTVHSYLEKFLTEQMMERREDVWLPLISYRNSLVTGGEDDRMSVNSGSSSSKTSSVRNKKGRPPLHKKRVEDESLDNTWLNRTDTMIQTPGPLPAPQLTSTVLRENSRPMGDQIQEPESEHGSEPDFLHNPQMQISWLGQPKLEDLNRKDRTGMNYMKVRTGVRHAVRGLMEEDAEPIFEDVMMSSRSQLEDMNEEFEDTMVIDLPPSRNRRERAELRPDFFDSAAIIEDDSGFGMPMF
chain 2: MFYAHFVLSKRGPLAKIWLAAHWDKKLTKAHVFECNLESSVESIISPKVKMALRTSGHLLLGVVRIYHRKAKYLLADCNEAFIKIKMAFRPGVVDLPEENREAAYNAITLPEEFHDFDQPLPDLDDIDVAQQFSLNQSRVEEITMREEVGNISILQENDFGDFGMDDREIMREGSAFEDDDMLVSTTTSNLLLESEQSTSNLNEKINHLEYEDQYKDDNFGEGNDGGILDDKLISNNDGGIFDDPPALSEAGVMLPEQPAHDDMDEDDNVSMGGPDSPDSVDPVEPMPTMTDQTTLVPNEEEAFALEPIDITVKETKAKRKRKLIVDSVKELDSKTIRAQLSDYSDIVTTLDLAPPTKKLMMWKETGGVEKLFSLPAQPLWNNRLLKLFTRCLTPLVPEDLRKRRKGGEADNLDEFLKEFENPEVPREDQQQQHQQRDVIDEPIIEEPSRLQESVMEASRTNIDESAMPPPPPQGVKRKAGQIDPEPVMPPQQVEQMEIPPVELPPEEPPNICQLIPELELLPEKEKEKEKEKEDDEEEEDEDASGGDQDQEERRWNKRTQQMLHGLQRALAKTGAESISLLELCRNTNRKQAAAKFYSFLVLKKQQAIELTQEEPYSDIIATPGPRFHII

Variants of: B1
Assay: co-immunoprecipitation (anti-FLAG IP), capillary immunodetection assay; HEK293; read off a plot

Row | ratio to parent | Variant
1 | ~0.06 | chain 1 D797A
2 | ~0.08 | chain 1 D797K
